This note sets out measurements from article doi:10.1101/169961.

In this assay the target is Chicken skeletal muscle actin (chicken) (UniProt P68139). Kind of assay: TIRF microscopy.

The substance “tropomyosin AlaSer-Cdc8, labeled (natural protein)” yielded a percent of Fim1 association with F-actin prevented by Cdc8 alone of 50%.
